Key:
Experiment in all cases: biochemical
Format in all cases: biochemical
[1] = biological target: 266 human kinases (Homo sapiens, UniProt Q9Y5S2); settings: MRCKβ(h); 100 μM
How it was run: (§1)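 Kinase phosphorylates cationic substrate with radiolabelled ATP phosphate; substrate retained on anionic filter membrane; scintillation count; % of 100% activity control.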

[2] = biological target: 266 human kinases (Homo sapiens, UniProt Q9H422); settings: HIPK3(h); 100 μM
How it was run: as §1

[3] = biological target: 266 human kinases (Homo sapiens, UniProt Q5VT25); settings: MRCKα(h); 100 μM
How it was run: as §1

[4] = biological target: 266 human kinases (Homo sapiens, UniProt P53355); settings: DAPK1(h); 100 μM
How it was run: as §1

[5] = biological target: 266 human kinases (Homo sapiens, UniProt Q86Y07); settings: VRK2(h); 100 μM
How it was run: as §1

[6] = biological target: 266 human kinases (Homo sapiens, UniProt P35916); settings: Flt4(h); 100 μM
How it was run: as §1

[7] = biological target: 266 human kinases (Homo sapiens, UniProt Q9NYY3); settings: Snk(h); 100 μM
How it was run: as §1

[8] = biological target: 266 human kinases (Homo sapiens, UniProt P00533, T790M); settings: EGFR(T790M)(h); 100 μM
How it was run: as §1

[9] = biological target: 266 human kinases (Homo sapiens, UniProt Q13464); settings: ROCK-I(h); 100 μM
How it was run: as §1

[10] = biological target: 266 human kinases (Homo sapiens, UniProt P00519, Y253F); settings: Abl(Y253F)(h); 100 μM
How it was run: as §1

[11] = biological target: 266 human kinases (Homo sapiens, UniProt O96017); settings: CHK2(h); 100 μM
How it was run: as §1

[12] = biological target: T1, 266 human kinases (Homo sapiens, UniProt O15146); settings: MuSK(h); 100 μM
T1 sequence (O15146 24-869): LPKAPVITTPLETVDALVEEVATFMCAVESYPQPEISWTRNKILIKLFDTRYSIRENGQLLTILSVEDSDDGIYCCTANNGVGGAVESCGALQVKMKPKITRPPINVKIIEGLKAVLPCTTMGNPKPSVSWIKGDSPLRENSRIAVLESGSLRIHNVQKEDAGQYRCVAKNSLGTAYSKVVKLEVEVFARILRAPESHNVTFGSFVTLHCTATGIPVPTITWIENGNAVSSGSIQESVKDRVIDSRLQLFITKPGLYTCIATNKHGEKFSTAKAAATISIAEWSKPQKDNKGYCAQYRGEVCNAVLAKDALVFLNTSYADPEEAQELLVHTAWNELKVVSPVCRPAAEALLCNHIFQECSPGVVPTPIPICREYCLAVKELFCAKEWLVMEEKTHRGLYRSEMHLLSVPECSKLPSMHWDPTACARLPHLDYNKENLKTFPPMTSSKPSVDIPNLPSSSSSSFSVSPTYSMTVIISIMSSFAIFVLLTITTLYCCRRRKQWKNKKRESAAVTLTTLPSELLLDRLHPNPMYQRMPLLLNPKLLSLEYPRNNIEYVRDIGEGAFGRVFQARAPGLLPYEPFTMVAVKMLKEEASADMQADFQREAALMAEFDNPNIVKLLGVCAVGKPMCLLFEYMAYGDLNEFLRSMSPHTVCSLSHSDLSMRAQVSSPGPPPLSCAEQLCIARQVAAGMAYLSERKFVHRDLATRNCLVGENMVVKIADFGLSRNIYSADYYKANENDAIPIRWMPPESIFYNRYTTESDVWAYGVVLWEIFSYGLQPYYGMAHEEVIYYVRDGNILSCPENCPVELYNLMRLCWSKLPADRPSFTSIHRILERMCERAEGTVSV
How it was run: as §1

[13] = biological target: 266 human kinases (Homo sapiens, UniProt Q15349); settings: Rsk3(h); 100 μM
How it was run: as §1

[14] = biological target: 266 human kinases (Homo sapiens, UniProt P45984); settings: JNK2α2(h); 100 μM
How it was run: as §1

[15] = biological target: 266 human kinases (Homo sapiens, UniProt P49840); settings: GSK3α(h); 100 μM
How it was run: as §1

[16] = biological target: 266 human kinases (Homo sapiens, UniProt P36888, D835Y); settings: Flt3(D835Y)(h); 100 μM
How it was run: as §1

[17] = biological target: 266 human kinases (Homo sapiens, UniProt P07333, Y969C); settings: Fms(Y969C)(h); 100 μM
How it was run: as §1

[18] = biological target: 266 human kinases (Homo sapiens, UniProt Q9Y6M4); settings: CK1γ3(h); 100 μM
How it was run: as §1

[19] = biological target: 266 human kinases (Homo sapiens, UniProt P11362, V561M); settings: FGFR1(V561M)(h); 100 μM
How it was run: as §1

[20] = biological target: 266 human kinases (Homo sapiens, UniProt P49760); settings: CLK2(h); 100 μM
How it was run: as §1

[21] = biological target: 266 human kinases (Homo sapiens, UniProt P19784); settings: CK2α2(h); 100 μM
How it was run: as §1

266 human kinases (Homo sapiens, UniProt Q9H422), sequence (Q9H422 whole entry): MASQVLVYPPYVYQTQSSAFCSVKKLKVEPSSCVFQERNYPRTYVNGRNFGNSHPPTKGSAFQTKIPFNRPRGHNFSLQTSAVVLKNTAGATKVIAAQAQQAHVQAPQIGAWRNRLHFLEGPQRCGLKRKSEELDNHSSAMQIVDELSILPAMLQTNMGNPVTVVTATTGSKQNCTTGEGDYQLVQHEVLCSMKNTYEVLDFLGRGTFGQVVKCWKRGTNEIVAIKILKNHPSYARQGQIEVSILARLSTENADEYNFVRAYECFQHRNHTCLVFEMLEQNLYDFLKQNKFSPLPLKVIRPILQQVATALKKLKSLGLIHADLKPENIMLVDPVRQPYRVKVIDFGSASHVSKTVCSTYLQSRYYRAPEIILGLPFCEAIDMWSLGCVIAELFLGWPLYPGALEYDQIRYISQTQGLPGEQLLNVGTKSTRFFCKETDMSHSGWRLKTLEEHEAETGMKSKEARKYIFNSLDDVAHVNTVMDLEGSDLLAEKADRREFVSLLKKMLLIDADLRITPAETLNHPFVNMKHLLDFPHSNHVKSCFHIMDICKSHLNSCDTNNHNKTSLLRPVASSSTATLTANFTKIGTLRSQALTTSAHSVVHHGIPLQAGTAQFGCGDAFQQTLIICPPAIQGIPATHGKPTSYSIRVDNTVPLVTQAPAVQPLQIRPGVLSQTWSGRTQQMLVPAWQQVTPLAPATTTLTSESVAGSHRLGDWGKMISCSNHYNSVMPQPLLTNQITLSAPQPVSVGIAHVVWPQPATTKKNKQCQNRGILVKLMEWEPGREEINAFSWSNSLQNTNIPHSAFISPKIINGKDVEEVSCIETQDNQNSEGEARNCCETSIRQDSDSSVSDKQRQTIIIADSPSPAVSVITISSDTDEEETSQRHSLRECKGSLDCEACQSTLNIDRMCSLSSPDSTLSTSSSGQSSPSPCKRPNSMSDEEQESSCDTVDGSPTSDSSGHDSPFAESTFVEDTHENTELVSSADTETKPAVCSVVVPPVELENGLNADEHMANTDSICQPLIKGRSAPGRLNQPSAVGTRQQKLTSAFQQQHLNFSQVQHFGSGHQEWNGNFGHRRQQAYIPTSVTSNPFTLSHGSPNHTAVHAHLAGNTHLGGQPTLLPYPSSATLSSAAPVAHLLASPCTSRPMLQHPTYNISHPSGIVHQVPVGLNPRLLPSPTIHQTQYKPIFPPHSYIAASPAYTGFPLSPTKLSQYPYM
266 human kinases (Homo sapiens, UniProt Q15349), sequence (Q15349 whole entry): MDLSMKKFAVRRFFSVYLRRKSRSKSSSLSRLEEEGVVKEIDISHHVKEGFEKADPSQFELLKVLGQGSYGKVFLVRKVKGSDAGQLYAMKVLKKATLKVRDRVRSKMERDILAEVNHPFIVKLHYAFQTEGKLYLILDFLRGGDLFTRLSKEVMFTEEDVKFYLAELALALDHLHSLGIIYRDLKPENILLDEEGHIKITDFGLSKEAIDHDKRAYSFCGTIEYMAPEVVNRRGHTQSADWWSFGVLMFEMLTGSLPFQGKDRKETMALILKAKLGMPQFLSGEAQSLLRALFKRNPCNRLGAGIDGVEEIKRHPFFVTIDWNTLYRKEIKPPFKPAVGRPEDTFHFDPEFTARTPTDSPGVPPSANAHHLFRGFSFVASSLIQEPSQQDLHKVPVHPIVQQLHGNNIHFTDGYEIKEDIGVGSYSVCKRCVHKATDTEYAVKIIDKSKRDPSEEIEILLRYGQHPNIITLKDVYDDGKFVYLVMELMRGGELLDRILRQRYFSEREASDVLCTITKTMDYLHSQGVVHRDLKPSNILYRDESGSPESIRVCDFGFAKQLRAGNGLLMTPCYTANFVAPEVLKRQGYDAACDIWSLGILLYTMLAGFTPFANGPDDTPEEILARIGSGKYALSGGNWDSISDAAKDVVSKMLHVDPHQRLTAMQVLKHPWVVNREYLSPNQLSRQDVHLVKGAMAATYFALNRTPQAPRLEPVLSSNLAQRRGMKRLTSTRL
266 human kinases (Homo sapiens, UniProt P19784), sequence (P19784 whole entry): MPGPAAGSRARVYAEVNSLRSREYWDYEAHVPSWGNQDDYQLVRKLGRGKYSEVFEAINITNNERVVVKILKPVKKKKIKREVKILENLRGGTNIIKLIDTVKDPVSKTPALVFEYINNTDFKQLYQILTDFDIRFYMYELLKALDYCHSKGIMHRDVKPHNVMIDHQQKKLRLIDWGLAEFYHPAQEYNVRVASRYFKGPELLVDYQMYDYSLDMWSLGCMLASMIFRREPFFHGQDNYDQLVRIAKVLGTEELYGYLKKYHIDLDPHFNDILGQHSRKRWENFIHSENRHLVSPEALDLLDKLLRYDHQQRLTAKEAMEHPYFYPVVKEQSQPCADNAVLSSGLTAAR
266 human kinases (Homo sapiens, UniProt Q5VT25), sequence (Q5VT25 whole entry): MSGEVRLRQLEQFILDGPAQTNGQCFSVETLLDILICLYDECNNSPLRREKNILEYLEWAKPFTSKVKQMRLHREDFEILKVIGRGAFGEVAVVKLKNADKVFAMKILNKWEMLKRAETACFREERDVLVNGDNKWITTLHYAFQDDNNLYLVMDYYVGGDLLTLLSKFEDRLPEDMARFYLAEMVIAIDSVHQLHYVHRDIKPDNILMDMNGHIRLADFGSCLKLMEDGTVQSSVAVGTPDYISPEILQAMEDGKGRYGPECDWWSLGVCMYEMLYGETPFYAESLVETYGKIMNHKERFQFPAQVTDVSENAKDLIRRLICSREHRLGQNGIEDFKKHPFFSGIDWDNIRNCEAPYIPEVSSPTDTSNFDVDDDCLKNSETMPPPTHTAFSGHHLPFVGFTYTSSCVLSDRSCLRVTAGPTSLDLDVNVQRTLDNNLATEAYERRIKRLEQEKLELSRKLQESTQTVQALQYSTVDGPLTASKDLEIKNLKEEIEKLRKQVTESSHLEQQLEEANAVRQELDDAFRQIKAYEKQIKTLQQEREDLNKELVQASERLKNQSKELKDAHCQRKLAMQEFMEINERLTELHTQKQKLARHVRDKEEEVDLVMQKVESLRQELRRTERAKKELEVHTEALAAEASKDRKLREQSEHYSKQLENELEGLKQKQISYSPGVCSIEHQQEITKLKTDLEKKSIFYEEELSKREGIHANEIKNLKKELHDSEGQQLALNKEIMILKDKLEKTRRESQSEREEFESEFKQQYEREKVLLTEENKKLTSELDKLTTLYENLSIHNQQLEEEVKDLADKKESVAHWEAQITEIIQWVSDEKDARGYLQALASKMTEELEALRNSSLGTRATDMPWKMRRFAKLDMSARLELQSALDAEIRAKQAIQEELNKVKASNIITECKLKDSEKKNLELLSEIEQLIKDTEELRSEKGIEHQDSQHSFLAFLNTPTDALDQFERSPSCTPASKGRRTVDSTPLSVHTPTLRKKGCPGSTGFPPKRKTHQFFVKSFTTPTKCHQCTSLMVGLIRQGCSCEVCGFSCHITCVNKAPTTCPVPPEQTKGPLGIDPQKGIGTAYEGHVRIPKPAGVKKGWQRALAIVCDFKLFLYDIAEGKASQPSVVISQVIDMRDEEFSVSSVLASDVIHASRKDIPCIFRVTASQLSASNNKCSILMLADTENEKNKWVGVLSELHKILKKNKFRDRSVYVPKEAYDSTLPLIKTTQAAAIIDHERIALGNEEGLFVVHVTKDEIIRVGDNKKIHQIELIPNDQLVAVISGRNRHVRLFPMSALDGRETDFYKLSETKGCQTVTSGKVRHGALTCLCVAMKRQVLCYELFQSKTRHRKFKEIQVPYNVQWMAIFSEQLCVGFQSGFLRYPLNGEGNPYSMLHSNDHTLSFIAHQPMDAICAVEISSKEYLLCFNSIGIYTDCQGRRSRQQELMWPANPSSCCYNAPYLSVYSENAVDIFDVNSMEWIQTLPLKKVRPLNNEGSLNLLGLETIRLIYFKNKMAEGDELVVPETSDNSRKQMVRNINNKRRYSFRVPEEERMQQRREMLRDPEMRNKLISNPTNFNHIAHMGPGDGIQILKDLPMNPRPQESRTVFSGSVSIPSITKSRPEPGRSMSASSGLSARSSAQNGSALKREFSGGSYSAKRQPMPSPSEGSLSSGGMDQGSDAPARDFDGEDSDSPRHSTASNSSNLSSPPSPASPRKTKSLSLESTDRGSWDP
266 human kinases (Homo sapiens, UniProt P49760), sequence (P49760 whole entry): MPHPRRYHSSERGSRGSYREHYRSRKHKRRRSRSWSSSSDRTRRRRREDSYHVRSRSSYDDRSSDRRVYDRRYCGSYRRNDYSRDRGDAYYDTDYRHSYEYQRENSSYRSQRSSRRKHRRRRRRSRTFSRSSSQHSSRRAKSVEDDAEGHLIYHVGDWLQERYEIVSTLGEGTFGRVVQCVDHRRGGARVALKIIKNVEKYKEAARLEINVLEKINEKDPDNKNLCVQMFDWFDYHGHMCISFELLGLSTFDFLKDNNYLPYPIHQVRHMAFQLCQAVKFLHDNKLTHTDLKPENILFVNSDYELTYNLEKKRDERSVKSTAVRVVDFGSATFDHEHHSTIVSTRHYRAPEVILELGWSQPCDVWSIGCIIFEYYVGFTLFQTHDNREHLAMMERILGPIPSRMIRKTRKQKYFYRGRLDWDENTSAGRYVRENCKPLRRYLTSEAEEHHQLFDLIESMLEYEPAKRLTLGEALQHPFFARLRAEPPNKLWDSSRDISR
266 human kinases (Homo sapiens, UniProt Q86Y07), sequence (Q86Y07 whole entry): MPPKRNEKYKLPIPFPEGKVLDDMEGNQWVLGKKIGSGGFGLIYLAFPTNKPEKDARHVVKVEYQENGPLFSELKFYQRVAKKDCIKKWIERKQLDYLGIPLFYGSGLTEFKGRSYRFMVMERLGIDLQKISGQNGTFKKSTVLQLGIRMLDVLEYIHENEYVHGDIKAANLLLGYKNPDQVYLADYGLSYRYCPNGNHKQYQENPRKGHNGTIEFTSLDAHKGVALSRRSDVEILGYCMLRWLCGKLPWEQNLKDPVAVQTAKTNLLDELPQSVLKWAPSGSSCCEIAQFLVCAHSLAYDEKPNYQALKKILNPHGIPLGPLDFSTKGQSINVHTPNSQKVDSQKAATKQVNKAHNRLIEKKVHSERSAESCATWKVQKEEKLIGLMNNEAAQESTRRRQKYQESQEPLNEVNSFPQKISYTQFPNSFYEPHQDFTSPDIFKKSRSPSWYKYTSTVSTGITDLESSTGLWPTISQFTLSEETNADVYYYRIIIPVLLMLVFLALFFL

## HRRIKAWLKKIKALARQLGVAA (mammal) [MMI-0500]
[1]
  % activity: −10%
[2]
  % activity: 85%
[3]
  % activity: 5%
[4]
  % activity: 0%
[5]
  % activity: 169%
[6]
  % activity: 73%
[7]
  % activity: 122%
[8]
  % activity: 70%
[9]
  % activity: 17%
[10]
  % activity: 29%
[11]
  % activity: 13%
[12]
  % activity: 27%
[13]
  % activity: 23%
[14]
  % activity: 81%
[15]
  % activity: 175%
[16]
  % activity: 65%

## YARAAARQARAKALNRQLGVA (mammal) [MMI-0200]
[17]
  % activity: 88%
[18]
  % activity: 96%
[19]
  % activity: 72%
[20]
  % activity: 97%
[21]
  % activity: 88%

Source: patent US20140072613A1, “Compositions and Methods for Treating Cutaneous Scarring” (priority 2012, published 2014)
